Experiments:
[1] = Luminescence activity of proteins expressed in cell-free in vitro transcription-translation system; type: biochemical; details: no microsomal membrane (−); 1 μg coelenterazine
Description: Using the expression vector, pKAZ-CMV, PSKAZ-CMV, pOL-CMV or pSOL-CMV prepared in Example 10, the 19 kDa or 35 kDa protein constituting Oplophorus luciferase was expressed by means of the in vitro transcription-translation system. As a positive control, pRL-CMV expressing Renilla luciferase was used. The in vitro transcription-translation system is capable of producing a protein from a recombinant plasmid or mRNA prepared from the plasmid and is particularly useful for the luminescence system with high sensitivity for the detection. In this Example, a commercially available in vitro translation kit (TNT in vitro transcription/translation kit; Promega) was used. A fraction of microsomal membranes capable of cleaving the signal sequence for secretion was also added in order to confirm the existence of the signal sequence in the expressed proteins. The in vitro translation mixture (25 μl in total) containing 0.5 μg of the plasmid DNA, 20 μl of rabbit reticulocyte lysate, 1 μl of 1 mM methionine and 2.5 μl of microsomal membranes was incubated at 30° C. for 90 min and then 1 μl of the mixture was subjected to the measurement of its luminescent activity. […] The reaction was started by the addition of a test sample and the intensity of the luminescence was measured by the luminometer.

[2] = Luminescence activity after expression in COS7 cells, coelenterazine substrate; type: cell-based; details: for Luminescence activity in Cell extracts, Coelenterazine: COS7 cell extracts; for Luminescence activity in Medium, Coelenterazine: COS7 culture medium
Protocol: (§1) Expression of the proteins as a component of Oplophorus luciferase in mammalian cultured cells COS7 was conducted using the expression plasmids pKAZ-CMV, PSKAZ-CMV, pOL-CMV and pSOL-CMV constructed in Example 10 and pRL-CMV expressing Renilla luciferase as a control for the transfection of the host. COS7 cells (2×10^5 cells) were grown in a 35 mm well-plate containing 3 ml of Dulbecco's modified Eagle's media (Gibco BRL, Rockville, Md., USA) supplemented with 10% (v/v) heat-inactivated fetal calf serum (Gibco BRL), 100 U/ml penicillin and 100 μg/ml of streptomycin. The cells were cultured at 37° C. for 24 hours and then transfected with 2 μg of each plasmid DNA using FuGENE6 transfection reagent (Rosche Diagnostics, Mannheim, Germany). After further incubation for 36 hours, cells were separated from cultured media by centrifugation. The separated cells were suspended in 0.5 ml of phosphate-buffered saline, and subjected to repeated freeze-thawing at a temperature between 37° C. and −80° C. to obtain a cell extract. One μg of coelenterazine or bisdeoxy-coelenterazine was added as a substrate into the cell extract and the intensity of the luminescence was measured by the luminometer.

[3] = Luminescence activity after expression in COS7 cells, bisdeoxy-coelenterazine substrate; type: cell-based
Protocol: as §1

[4] = Preservation test of renatured 19 kDa protein, luminescence activity; type: biochemical; details: for luminescence activity on preservation: 4° C.; for Luminescence activity after preservation: 4 ° C.
Protocol: Subsequently, the 19 kDa protein renatured was subjected to the preservation test, which comprises preserving the protein in the absence or presence of 50% (v/w) or 70% (v/w) glycerol at 4° C. for 30 days and then measuring its luminescence activity as mentioned above.

[5] = Renaturation of urea-solubilized 19 kDa protein with glycerol, luminescence activity; type: biochemical; details: for Luminescence Activity: 25° C., 30 minutes; for Luminescence Activity, relative value in parentheses: relative to 0 % glycerol
Protocol: E. coli cells constructed in Example 12 which contain the expression vector pHis-KAZ and express the 19 kDa protein were disrupted by the sonication in 20 ml of a buffer comprising 20 mM Tris-HCl, pH 7.5. After centrifugation (12,000×g, 20 minutes), the precipitated fraction was subjected to the solubilization by treating with 20 ml of 20, mM Tris-HCl, pH 7.5 containing 8 M urea and then centrifuged (12,000×g, 20 minutes) to afford a soluble fraction. […] Subsequently, the soluble fraction was subjected to the nickel-chelated column chromatography and the desired protein was eluted by the linear gradient of imidazole from 0 to 0.3 M to give approximately 95% purity.
Consequently, the protein was subjected to the renaturation step by treating with glycerol (the final concentration: from 0 to 90% (v/w)) as a solvent at 25° C. for 30 minutes to afford the 19 kDa protein renatured. As described above, the intensity of the luminescence was measured by the luminometer.

B1: 35 kDa Protein: 35 kDa protein component of Oplophorus luciferase, positions 40–359 of SEQ ID NO: 4, without signal sequence (protein, listed as Oplophorus gracilorostris)
chain: AVACPAAEDIAPCTCKVGEGDVMDMDCSKVTSDAELASIFSKTFPSNTFRELFIEFNREITTLTADSLGAATFTKIAITSCTQLKTIEENAFMASAATLEKLVLLKNDLSSFPFEEMSQYTKLNWLELSVNSITGWPALSSDTLANLILFRNPIGNIPVDAFQTLPNIEQFNCFDCSITEVEAGTFTRSPKLQKLVLGYNGLTSLPVGAIKLHGHGPTTSNLGITNNQIISFPEGAVEGIQGILGIDFNRVTSLSEEVWRPILENLFQFSLLNNPLACVCDVMWLIDSPELLAKIKGNPRCAGGKRLKNLDPAVFHAMCQ
For B1, the Luminescence Activity [1] was <0.001 rlu, the “Luminescence activity in Cell extracts, Coelenterazine” value [2] was <0.001 rlu and the “Luminescence activity in Medium, Coelenterazine” value [2] was 2.45 rlu. The “Luminescence activity in Cell extracts, Bisdeoxy-coelenterazine” value [3] was <0.001 rlu.

B2: 19 kDa Protein: 19 kDa photoprotein component of Oplophorus luciferase, positions 28–196 of SEQ ID NO: 2, without signal sequence (protein, listed as Oplophorus gracilorostris)
chain: FTLADFVGDWQQTAGYNQDQVLEQGGLSSLFQALGVSVTPIQKVVLSGENGLKADIHVIIPYEGLSGFQMGLIEMIFKVVYPVDDHHFKIILHYGTLVIDGVTPNMIDYFGRPYPGIAVFDGKQITVTGTLWNGNKIYDERLINPDGSLLFRVTINGVTGWRLCENILA
In the case of B2, the Luminescence Activity [1] is reported as 1242.0 rlu, the “Luminescence activity in Cell extracts, Coelenterazine” value [2] is reported as 2,273.0 rlu and the “luminescent intensity compared with pRL-CMV” value ([2]; COS7 cells) is reported as “equivalent to that from pRL-CMV”. The “Luminescence activity in Medium, Coelenterazine” value [2] was 3.62 rlu, the “luminescence activity on preservation” value ([4]; absence of glycerol, 30 days) was “significantly decreased” and the “Luminescence activity after preservation” value ([4]; glycerol 0 % v/w, 0 day) was 102 rlu. For the same molecule, the “Luminescence activity after preservation” value ([4]; glycerol 0 % v/w, 30 days) was 23 rlu, the “Luminescence activity after preservation” value ([4]; glycerol 50 % v/w, 0 day) was 3,840 rlu and the “Luminescence activity after preservation” value ([4]; glycerol 50 % v/w, 30 days) was 3,734 rlu. For the same molecule, the “luminescence activity on preservation” value ([4]; presence of glycerol (50% or 70% v/w), 30 days) was “maintained without decreasing”, the “Luminescence activity in Cell extracts, Bisdeoxy-coelenterazine” value [3] was 2,124.0 rlu and the “luminescence activity before renaturation” value ([5]; after 8 M urea solubilization and nickel-chelated column, before glycerol) was “no luminescence activity”. The “Luminescence Activity” value ([5]; glycerol 0 % v/w) was 83 rlu, the “Luminescence Activity, relative value in parentheses” value ([5]; glycerol 0 % v/w) was “(1.0)” and the “Luminescence Activity” value ([5]; glycerol 10 % v/w) was 147 rlu. The “Luminescence Activity, relative value in parentheses” value ([5]; glycerol 10 % v/w) was “(1.8)”, the “Luminescence Activity” value ([5]; glycerol 20 % v/w) was 375 rlu and the “Luminescence Activity, relative value in parentheses” value ([5]; glycerol 20 % v/w) was “(4.5)”. For the same molecule, the “Luminescence Activity” value ([5]; glycerol 30 % v/w) was 1,258 rlu, the “Luminescence Activity, relative value in parentheses” value ([5]; glycerol 30 % v/w) was “(15.2)” and the “Luminescence Activity” value ([5]; glycerol 40 % v/w) was 1,818 rlu. The “Luminescence Activity, relative value in parentheses” value ([5]; glycerol 40 % v/w) was “(24.9)”, the “Luminescence Activity” value ([5]; glycerol 50 % v/w) was 3,822 rlu and the “Luminescence Activity, relative value in parentheses” value ([5]; glycerol 50 % v/w) was “(46.0)”. The “Luminescence Activity” value ([5]; glycerol 60 % v/w) was 4,860 rlu, the “Luminescence Activity, relative value in parentheses” value ([5]; glycerol 60 % v/w) was “(58.6)” and the “Luminescence Activity” value ([5]; glycerol 70 % v/w) was 4,462 rlu. For the same molecule, the “Luminescence Activity, relative value in parentheses” value ([5]; glycerol 70 % v/w) was “(53.8)”, the “Luminescence Activity” value ([5]; glycerol 80 % v/w) was 2,842 rlu and the “Luminescence Activity, relative value in parentheses” value ([5]; glycerol 80 % v/w) was “(34.2)”. For the same molecule, the “Luminescence Activity” value ([5]; glycerol 90 % v/w) was 2,536 rlu and the “Luminescence Activity, relative value in parentheses” value ([5]; glycerol 90 % v/w) was “(30.6)”.
